Legend:
[1] = target: T1, recombinant cynomolgus monkey CD38-ECD-C-his (cynomolgus monkey, UniProt Q5VAN0 45-301); assay: SPR, His-captured cyno CD38, Fab analyte, 1:1 fit
T1 construct: Extracellular region fused to 6-His; also called cyno CD38-C-His; recombinant cynomolgus monkey CD38 protein
Description: (§1) Surface plasmon resonance (SPR) was used to measure the binding affinities of the Fab fragments for human and cynomolgus monkey CD38. Affinities were measured on a Biacore T200 instrument (Biacore, GE Healthcare) at 25° C. and analyzed with the Biacore T200 Evaluation Software (v3.1).
(§2) The affinities to human and cynomolgus monkey CD38 were assessed by immobilizing CD38 and using Fab fragments as analyte. Biotinylated recombinant human CD38 protein was immobilized to around 160 RU on flow-path 2 of a Series S Sensor Chip SA or to around 100 RU on flow-path 2 of a Series S BiotinCAPture Chip and recombinant cynomolgus monkey CD38-his protein was immobilized to around 50-100 RU on flow-path 2 of a Series S CM5 Sensor Chip previously coated with anti-histidin antibody. Fab fragments were injected in single cycle kinetic at different concentrations ranging from 7.8 to 2000 nM, in HBS-EP+ buffer (Biacore, GE Healthcare, catalog NO: BR100669) at a flow rate of 30 μl/min for 3 min on flow-path 1 and 2 (flow-path 1 being used as reference). Dissociation was monitored for 5 min.

[2] = target: T2, recombinant biotinylated human CD38 Avitag, His Tag (Acrobiosystems, CD8-H82E7) (human, UniProt P28907 43-300, biotinylated (Avitag)); assay: SPR, biotinylated CD38 captured, Fab analyte, 1:1 fit;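 further: biacore T200 at 25 °C, single-cycle kinetics with Fab injected at 7.8–2000 nM for 3 min, dissociation followed 5 min, reference flow path subtracted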
T2 construct: Bought protein; also called biotinylated human CD38-avi-his protein; biotinylated recombinant human CD38 protein
Description: as §1, §2

[3] = target: T3, recombinant human CD38-ECD-C-his (human, UniProt P28907 43-300); assay: SPR, Fab captured as ligand, CD38 analyte
T3 construct: Extracellular region fused to 6-His, made in house; also called human CD38-C-His; recombinant human CD38 protein
Description: Affinities of the Fab to human and cynomolgus CD38 using the Fab as ligand were measured on a Biacore T200 instrument (Biacore, GE Healthcare) at 25° C. and analyzed with the BiacoreT200 Evaluation Software (v3.1). […] The affinities to human and cynomolgus monkey CD38 were assessed by immobilizing Fab fragments and using human or cynomolgus monkey CD38 protein as analyte. Around 50-200 RU of Fab was captured on flow-path 2 of a Series S CM5 Sensor Chip coupled with anti-human Fab antibodies. Human or cynomolgus monkey CD38 was injected in multi cycle kinetic at different concentrations ranging from 0.2 to 100 nM, in HBS-EP+ buffer (Biacore, GE Healthcare, catalog NO: BR100669) at a flow rate of 30 μl/min for 5 min on flow-path 1 and 2 (flow-path 1 being used as reference). Dissociation was monitored for 10 min. […] Experimental data were processed using the 1:1 Langmuir kinetic fitting model. Measurements included zero-concentration samples for referencing. Chi², U- and residual values were used to evaluate the quality of a fit between the experimental data and individual binding models.

[4] = target: T1, recombinant cynomolgus monkey …; assay: SPR, His-captured cyno CD38, Fab as analyte
[5] = target: T2, recombinant biotinylated human CD38 …; assay: SPR, biotinylated CD38 captured, Fab as analyte

Binder | Kd [1] [nM] | Kd [2] [nM] | Kd [3] [nM] | Kd [4] [nM] | Kd [5] [nM]
Anti-CD38-UCP01-E2 Fab (Fab, V domains shown, human IgG1 Fab; also called anti-CD38-E2; anti-CD38-E2 Fab) VH: QVQLVQSGAEVKKPGSSVKVSCKASGGSFSNYAIGWVRQAPGQGLEWMGRIIPVFGSAHYAQKFQGRVTITADESTSTAYMELSSLRSEDTAVYYCARGLGYYLYSSYYFDIWGQGTLVTVSS VL: not shown | 88.9 | 110 |  |  | 
anti-CD38-E2-UCP01-A10 FAB (Fab, V domains shown, human IgG1 Fab) VH: QVQLVQSGAEVKKPGSSVKVSCKASGLPDATYAIGWVRQAPGQGLEWMGRIIPVFGSAHYAQKFQGRVTITADESTSTAYMELSSLRSEDTAVYYCARGLGYYLYSSYYFDIWGQGTLVTVSS VL: not shown |  |  | 16.9 | 8.6 | 9.4
Anti-CD38-UCP03-B6 Fab (Fab, V domains shown, human IgG1 Fab; also called anti-CD38-B6; anti-CD38-B6 Fab) VH: QVQLVQSGAEVKKPGSSVKVSCKASGGHISNSAINWVRQAPGQGLEWMGRVIPVIDDAYYAQKFQGRVTITADESTSTAYMELSSLRSEDTAVYYCARSRGYYGSFYFDIWGQGTLVTVSS VL: not shown | 829 | 225 |  |  | 
anti-CD38-B6-MP01-C2 FAB (Fab, V domains shown, human IgG1 Fab) VH: QVQLVQSGAEVKKPGSSVKVSCKASGGAFSDYVISWVRQAPGQGLEWMGRVIPVIDDAYYAQKFQGRVTITADESTSTAYMELSSLRSEDTAVYYCARSRGYYGSFYFDIWGQGTLVTVSS VL: not shown |  |  | 345 |  | 209
Anti-CD38-UCP01-B1 Fab (Fab, V domains shown, human IgG1 Fab) VH: QVQLVQSGAEVKKPGSSVKVSCKASGGDFDQYYISWVRQAPGQGLEWMGRIIPTLGDSQYAQKFQGRVTITADESTSTAYMELSSLRSEDTAVYYCARAVIVSPYYYIYVFDVWGQGTLVTVSS VL: not shown | 102 | 193 |  |  | 
Anti-CD38-UCP01-F1 Fab (Fab, V domains shown, human IgG1 Fab) VH: QVQLVQSGAEVKKPGSSVKVSCKASGGVFSLYTITWVRQAPGQGLEWMGSIIPLLGDPEYAQKFQGRVTITADESTSTAYMELSSLRSEDTAVYYCARYPYPYGSKYFDIWGQGTLVTVSS VL: not shown | 393 | 429 |  |  | 
Anti-CD38-UCP01-G1 Fab (Fab, V domains shown, human IgG1 Fab) VH: QVQLVQSGAEVKKPGSSVKVSCKASGGGFSKYFITWVRQAPGQGLEWMGGVIPKIGYTSYAQKFQGRVTITADESTSTAYMELSSLRSEDTAVYYCARGSDDYASYSPLDSWGQGTLVTVSS VL: not shown | 283 | 1120 |  |  | 
Anti-CD38-UCP01-H1 Fab (Fab, V domains shown, human IgG1 Fab) VH: QVQLVQSGAEVKKPGSSVKVSCKASGDFFSGYAINWVRQAPGQGLEWMGRIIPLLGDTYYAQKFQGRVTITADESTSTAYMELSSLRSEDTAVYYCARSAAGWFAYWGQGTLVTVSS VL: not shown | 352 | 437 |  |  | 
Anti-CD38-UCP01-C2 Fab (Fab, V domains shown, human IgG1 Fab) VH: QVQLVQSGAEVKKPGSSVKVSCKASGGYLGIYAISWVRQAPGQGLEWMGRIIPILGEADYAQKFQGRVTITADESTSTAYMELSSLRSEDTAVYYCARGGVWWDYWGQGTLVTVSS VL: not shown | 53.5 | 85.3 |  |  | 
Anti-CD38-UCP02-A7 Fab (Fab, V domains shown, human IgG1 Fab) VH: EVQLLESGGGLVQPGGSLRLSCAASGFTFSFYDMSWVRQAPGKGLEWVSTITLHGGDTYYADSVKGRFTISRDNSKNTLYLQMNSLRAEDTAVYYCARDPSYIYSTSGYFDYWGQGTLVTVSS VL: not shown |  | 71.1 |  |  | 
Anti-CD38-UCP02-B1 Fab (Fab, V domains shown, human IgG1 Fab) VH: QVQLVQSGAEVKKPGSSVKVSCKASGGQFSFYAINWVRQAPGQGLEWMGEIIPDYGVTHYAQKFQGRVTITADESTSTAYMELSSLRSEDTAVYYCARWSYTYGIRYYYKLFDPWGQGTLVTVSS VL: not shown |  | 595 |  |  | 
Anti-CD38-UCP02-B7 Fab (Fab, V domains shown, human IgG1 Fab) VH: EVQLVESGGGLVKPGGSLRLSCAASGFSFNEAWMTWVRQAPGKGLEWVGRIKSYSDGGYTGYAAPVKGRFTISRDDSKNTLYLQMNSLKTEDTAVYYCARSPGIPYHYFDVWGQGTLVTVSS VL: not shown |  | 1710 |  |  | 
Anti-CD38-UCP03-C3 Fab (Fab, V domains shown, human IgG1 Fab) VH: QVQLVQSGAEVKKPGSSVKVSCKASGGKFSNYAISWVRQAPGQGLEWMGRIIPQIGDAAYAQKFQGRVTITADESTSTAYMELSSLRSEDTAVYYCARASFLYYSYYFDYWGQGTLVTVSS VL: not shown | 465 | 117 |  |  | 
Anti-CD38-UCP02-C3 Fab (Fab, V domains shown, human IgG1 Fab) VH: QVQLVQSGAEVKKPGSSVKVSCKASGDYFNNYAINWVRQAPGQGLEWMGRIIPFLDDANYAQKFQGRVTITADESTSTAYMELSSLRSEDTAVYYCARATSPLYSYYFDYWGQGTLVTVSS VL: not shown | 188 | 305 |  |  | 
Anti-CD38-UCP03-C2 Fab (Fab, V domains shown, human IgG1 Fab) VH: QVQLVQSGAEVKKPGSSVKVSCKASGGTFSNYAISWVRQAPGQGLEWMGGIIPAFGDAGYAQKFQGRVTITADESTSTAYMELSSLRSEDTAVYYCARGRVLYYSYYFDYWGQGTLVTVSS VL: not shown | 628 | 1390 |  |  | 
Anti-CD38-UCP02-D1 Fab (Fab, V domains shown, human IgG1 Fab) VH: QVQLVQSGAEVKKPGSSVKVSCKASGGDFDQYYISWVRQAPGQGLEWMGRIIPTLGDSQYAQKFQGRVTITADESTSTAYMELSSLRSEDTAVYYCARAVIVSPYYYIYVFDVWGQGTLVTVSS VL: not shown | 78 | 133 |  |  | 
Anti-CD38-UCP02-D5 Fab (Fab, V domains shown, human IgG1 Fab) VH: QVQLVQSGAEVKKPGSSVKVSCKASGGIFSVHAIHWVRQAPGQGLEWMGEIIPVIGEADYAQKFQGRVTITADESTSTAYMELSSLRSEDTAVYYCAREQYYYALGGGFDYWGQGTLVTVSS VL: not shown | 33.5 | 192 |  |  | 
Anti-CD38-UCP02-E5 Fab (Fab, V domains shown, human IgG1 Fab) VH: QVQLVQSGAEVKKPGSSVKVSCKASGGGFRHYFISWVRQAPGQGLEWMGGIIPAAATPYYAQKFQGRVTITADESTSTAYMELSSLRSEDTAVYYCARGYWHWFDYWGQGTLVTVSS VL: not shown |  | 0.03 |  |  | 
Anti-CD38-UCP02-F2 Fab (Fab, V domains shown, human IgG1 Fab) VH: QVQLVQSGAEVKKPGSSVKVSCKASGDVFSLLAIGWVRQAPGQGLEWMGRIIPSLDATHYAQKFQGRVTITADESTSTAYMELSSLRSEDTAVYYCARGRDVLRSYYFDIWGQGTLVTVSS VL: not shown | 14 | 14.2 |  |  | 
Anti-CD38-UCP02-F5 Fab (Fab, V domains shown, human IgG1 Fab) VH: QVQLVQSGAEVKKPGSSVKVSCKASGGVFSYYTISWVRQAPGQGLEWMGRIIPSLGATHYAQKFQGRVTITADESTSTAYMELSSLRSEDTAVYYCARSDSFYYAYYMDLWGQGTLVTVSS VL: not shown | 55.2 | 71.1 |  |  | 
Anti-CD38-UCP02-F6 Fab (Fab, V domains shown, human IgG1 Fab) VH: EVQLLESGGGLVQPGGSLRLSCAASGFTFSFYDMSWVRQAPGKGLEWVSAVSLYGDETYYADSVKGRFTISRDNSKNTLYLQMNSLRAEDTAVYYCAREPVSYDYYGSYFDYWGQGTLVTVSS VL: not shown |  | 389 |  |  | 
Anti-CD38-UCP02-H1 Fab (Fab, V domains shown, human IgG1 Fab) VH: QVQLVQSGAEVKKPGSSVKVSCKASGDKFNTYAISWVRQAPGQGLEWMGGITPRYDYAHYAQKFQGRVTITADESTSTAYMELSSLRSEDTAVYYCARSWGFRAGYLDYWGQGTLVTVSS VL: not shown | 2.7 | 154 |  |  | 
Anti-CD38-UCP03-B3 Fab (Fab, V domains shown, human IgG1 Fab) VH: QVQLVQSGAEVKKPGSSVKVSCKASGGDFTLYSISWVRQAPGQGLEWMGRIIPTGANANYAQKFQGRVTITADESTSTAYMELSSLRSEDTAVYYCARSWPSLGSGWFDIWGQGTLVTVSS VL: not shown | 170 | 115 |  |  | 
Anti-CD38-UCP03-H5 Fab (Fab, V domains shown, human IgG1 Fab) VH: QVQLVQSGAEVKKPGSSVKVSCKASGGLFSFYAISWVRQAPGQGLEWMGGIIPFFGEPQYAQKFQGRVTITADESTSTAYMELSSLRSEDTAVYYCARGSYRFDVWGQGTLVTVSA VL: not shown | 111 | 142 |  |  | 
Anti-CD38-UCP03-E3 Fab (Fab, V domains shown, human IgG1 Fab) VH: QVQLVQSGAEVKKPGSSVKVSCKASGGSFSIYAISWVRQAPGQGLEWMGGIIPNSGDTDYAQKFQGRVTITADESTSTAYMELSSLRSEDTAVYYCARGPYDSYGESYFDYWGQGTLVTVSS VL: not shown | 195 | 300 |  |  | 
Anti-CD38-UCP03-A6 Fab (Fab, V domains shown, human IgG1 Fab) VH: QVQLVQSGAEVKKPGSSVKVSCKASGGDFSLYAISWVRQAPGQGLEWMGGIIPLLGEPVYAQKFQGRVTITADESTSTAYMELSSLRSEDTAVYYCARGHRVYSSSPFDYWGQGTLVTVSS VL: not shown | 525 | 410 |  |  | 
Anti-CD38-UCP03-B1 Fab (Fab, V domains shown, human IgG1 Fab) VH: QVQLVQSGAEVKKPGSSVKVSCKASGGGFSKYFITWVRQAPGQGLEWMGGVIPKIGYTSYAQKFQGRVTITADESTSTAYMELSSLRSEDTAVYYCARGSDDYASYSPLDSWGQGTLVTVSS VL: not shown | 462 | 882 |  |  | 
Anti-CD38-UCP03-H2 Fab (Fab, V domains shown, human IgG1 Fab) VH: QVQLVQSGAEVKKPGSSVKVSCKASGGEFSIYVISWVRQAPGQGLEWMGRVIPSTGDTNYAQKFQGRVTITADESTSTAYMELSSLRSEDTAVYYCARGKAYYSGWLAIWGQGTLVTVSS VL: not shown | 672 | 1850 |  |  | 
Anti-CD38-UCP03-H3 Fab (Fab, V domains shown, human IgG1 Fab) VH: QVQLVQSGAEVKKPGSSVKVSCKASGGVFSQFPISWVRQAPGQGLEWMGGIIAGYGATEYAQKFQGRVTITADESTSTAYMELSSLRSEDTAVYYCARVYGGIDWGQGTLVTVSS VL: not shown | 178 | 810 |  |  | 
